Test results: US20150344570A1 (published 2015)
Where a chain is given by its changes, count along the chain named.

B1: GpH7-A5/GpH7-B3 variant G237_11K/GpL16-k0 (antibody, human IgG1, kappa)
heavy 1: not shown
heavy 2: not shown
light: DIVMTQSPLSLPVTPGEPASISCQASESLVHSNRNTYLHWYLQKPGQSPQLLIYKVSNRFSGVPDRFSGSGSGTDFTLKISRVEAEDVGVYYCSQNTHVPPTFGQGTKVEIERTVAAPSVFIFPPSDEQLKSGTASVVCLLNNFYPREAKVQWKVDNALQSGNSQESVTEQDSKDSTYSLSSTLTLSKADYEKHKVYACEVTHQGLSSPVTKSFNRGEC
notes: Heterodimerized anti-glypican-3 IgG1; mutation only in the GpH7-B3 H chain; also called He Ab
B2: GpH7-A5/GpH7-B3 variant G236_03V/GpL16-k0 (antibody, human IgG1, kappa)
heavy 1: not shown
heavy 2: not shown
light: B1 light
notes: also called He Ab
B3: GpH7-A5/GpH7-B3 variant L235_03V/GpL16-k0 (antibody, human IgG1, kappa)
heavy 1: not shown
heavy 2: not shown
light: B1 light
notes: Heterodimerized IgG1; mutation in the GpH7-B3 chain only; also called He Ab
B4: GpH7-A5/GpH7-B3 variant L235_14T/GpL16-k0 (antibody, human IgG1, kappa)
heavy 1: not shown
heavy 2: not shown
light: B1 light
notes: as for B3
B5: GpH7-A5/GpH7-B3 variant L234_04F/GpL16-k0 (antibody, human IgG1, kappa)
heavy 1: not shown
heavy 2: not shown
light: B1 light
notes: as for B3
B6: GpH7-A5/GpH7-B3 variant L234_16H/GpL16-k0 (antibody, human IgG1, kappa)
heavy 1: not shown
heavy 2: not shown
light: B1 light
notes: as for B3
B7: GpH7-A5/GpH7-B3 variant L234_05P/GpL16-k0 (antibody, human IgG1, kappa)
heavy 1: not shown
heavy 2: not shown
light: B1 light
notes: as for B3
B8: GpH7-A5/GpH7-B3 variant E269_01G/GpL16-k0 (antibody, human IgG1, kappa)
heavy 1: not shown
heavy 2: not shown
light: B1 light
notes: also called He Ab
B9: GpH7-A5/GpH7-B3 variant L234_19Q/GpL16-k0 (antibody, human IgG1, kappa)
heavy 1: not shown
heavy 2: not shown
light: B1 light
notes: as for B3
B10: GpH7-A5/GpH7-B3 variant G237_12R/GpL16-k0 (antibody, human IgG1, kappa)
heavy 1: not shown
heavy 2: not shown
light: B1 light
notes: Heterodimerized anti-glypican-3 IgG1; mutation in one H chain only; also called He Ab
B11: GpH7-A5/GpH7-B3 variant G237_12R/GpL16-k0 (antibody, human IgG1, kappa)
heavy 1: not shown
heavy 2: not shown
light: B1 light
notes: as for B1
B12: GpH7-A5/GpH7-B3 variant E269_02A/GpL16-k0 (antibody, human IgG1, kappa)
heavy 1: not shown
heavy 2: not shown
light: B1 light
notes: also called He Ab
B13: GpH7-A5/GpH7-B3 variant G236_04F/GpL16-k0 (antibody, human IgG1, kappa)
heavy 1: not shown
heavy 2: not shown
light: B1 light
notes: also called He Ab
B14: GpH7-A5/GpH7-B3 variant G236_15Y/GpL16-k0 (antibody, human IgG1, kappa)
heavy 1: not shown
heavy 2: not shown
light: B1 light
notes: as for B3
B15: GpH7-A5/GpH7-B3 variant L234_14T/GpL16-k0 (antibody, human IgG1, kappa)
heavy 1: not shown
heavy 2: not shown
light: B1 light
notes: as for B3
B16: GpH7-A5/GpH7-B3 variant L235_12R/GpL16-k0 (antibody, human IgG1, kappa)
heavy 1: not shown
heavy 2: not shown
light: B1 light
notes: also called He Ab
B17: GpH7-A5/GpH7-B3 variant L235_19Q/GpL16-k0 (antibody, human IgG1, kappa)
heavy 1: not shown
heavy 2: not shown
light: B1 light
notes: as for B3
B18: GpH7-A5/GpH7-B3 variant G237_11K/GpL16-k0 (antibody, human IgG1, kappa)
heavy 1: not shown
heavy 2: not shown
light: B1 light
notes: as for B10
B19: GpH7-A5/GpH7-B3 variant L234_15Y/GpL16-k0 (antibody, human IgG1, kappa)
heavy 1: not shown
heavy 2: not shown
light: B1 light
notes: as for B3
B20: GpH7-A5/GpH7-B3 variant L234_13S/GpL16-k0 (antibody, human IgG1, kappa)
heavy 1: not shown
heavy 2: not shown
light: B1 light
notes: as for B3
B21: GpH7-A5/GpH7-B3 variant L235_01G/GpL16-k0 (antibody, human IgG1, kappa)
heavy 1: not shown
heavy 2: not shown
light: B1 light
notes: as for B3
B22: GpH7-A5/GpH7-B3 variant L235_18N/GpL16-k0 (antibody, human IgG1, kappa)
heavy 1: not shown
heavy 2: not shown
light: B1 light
notes: as for B3
B23: GpH7-A5/GpH7-B3 variant G236_14T/GpL16-k0 (antibody, human IgG1, kappa)
heavy 1: not shown
heavy 2: not shown
light: B1 light
notes: as for B3
B24: GpH7-A5/GpH7-B3 variant L234_02A/GpL16-k0 (antibody, human IgG1, kappa)
heavy 1: not shown
heavy 2: not shown
light: B1 light
notes: as for B3
B25: GpH7-A5/GpH7-B3 variant L235_11K/GpL16-k0 (antibody, human IgG1, kappa)
heavy 1: not shown
heavy 2: not shown
light: B1 light
notes: as for B3
B26: GpH7-A5/GpH7-B3 variant L234_12R/GpL16-k0 (antibody, human IgG1, kappa)
heavy 1: not shown
heavy 2: not shown
light: B1 light
notes: as for B3
B27: GpH7-A5/GpH7-B3 variant L234_01G/GpL16-k0 (antibody, human IgG1, kappa)
heavy 1: not shown
heavy 2: not shown
light: B1 light
notes: as for B3
B28: GpH7-A5/GpH7-B3 variant L235_13S/GpL16-k0 (antibody, human IgG1, kappa)
heavy 1: not shown
heavy 2: not shown
light: B1 light
notes: as for B3
B29: GpH7-A5/GpH7-B3 variant L234_11K/GpL16-k0 (antibody, human IgG1, kappa)
heavy 1: not shown
heavy 2: not shown
light: B1 light
notes: as for B3

Columns and labels:
[1] = target: T1, FcγRIa extracellular domain with C-terminal His tag (human, UniProt P12314 16-292); assay: SPR; He/Con_1a divided by He/Con_2b (FcγRIa against FcγRIIb)
T1 construct: extracellular domain; also called FcgRI; CD64; not shown: His tag at the C terminus
T1 sequence (P12314 16-292): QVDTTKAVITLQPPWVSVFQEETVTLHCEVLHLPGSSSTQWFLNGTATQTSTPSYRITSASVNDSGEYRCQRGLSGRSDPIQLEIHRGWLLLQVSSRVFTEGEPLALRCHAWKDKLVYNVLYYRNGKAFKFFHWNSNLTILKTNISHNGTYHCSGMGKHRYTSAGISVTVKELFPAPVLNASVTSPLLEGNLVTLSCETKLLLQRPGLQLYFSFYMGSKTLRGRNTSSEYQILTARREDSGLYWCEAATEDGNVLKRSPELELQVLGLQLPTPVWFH

[2] = target: T1, FcγRIa extracellular domain with …; assay: SPR (Biacore), antibody captured, FcγR analyte; relative to GpH7-A5/GpH7-B3/GpL16-k0 = 100
[3] = target: T2, FcγRIIIa extracellular domain with C-terminal His tag (human, UniProt P08637 17-208); assay: SPR, binding relative to GpH7-A5/GpH7-B3/GpL16-k0 = 100
T2 construct: extracellular domain; also called 3a; FcgRIIIa
T2 sequence (P08637 17-208): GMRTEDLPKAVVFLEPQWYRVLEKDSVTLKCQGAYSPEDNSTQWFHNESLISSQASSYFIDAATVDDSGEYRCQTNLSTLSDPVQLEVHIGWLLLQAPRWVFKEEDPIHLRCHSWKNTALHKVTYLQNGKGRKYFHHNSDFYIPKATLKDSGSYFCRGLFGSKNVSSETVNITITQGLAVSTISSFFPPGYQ

[4] = target: T3, FcγRIIb extracellular domain with C-terminal His tag (human, UniProt P31994 43-217); assay: as above
T3 construct: extracellular domain; also called 2b; FcgRIIb
T3 sequence (looked up): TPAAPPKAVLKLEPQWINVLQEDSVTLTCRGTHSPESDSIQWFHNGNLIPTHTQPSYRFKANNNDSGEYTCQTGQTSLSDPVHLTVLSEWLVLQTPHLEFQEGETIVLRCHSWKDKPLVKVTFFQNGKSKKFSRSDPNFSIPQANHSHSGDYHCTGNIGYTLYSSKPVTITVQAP

[5] = target: T2, FcγRIIIa extracellular domain with …; assay: SPR; ratio of He/Con_3a (FcγRIIIa) to He/Con_2b (FcγRIIb)
Procedure: (§1) The heterodimerized antibodies He Abs in which one of the H chains was introduced with an alteration were assayed for their binding activities to each activating FcγR and inhibitory FcγR according to the method described in Example 4. […] The activating FcγRs in FIGS. 26, 27, 28, and 29 are FcγRIa, FcγRIIa (R), FcγRIIa (H), and FcγRIIIa, respectively.
(§2) Analysis of interaction between objective antibody and the FcγR was carried out using Biacore T100 (GE Healthcare). HBS-EP+ (GE Healthcare) was used as the running buffer, and the measurement temperature was set to 25° C. Chips produced by immobilizing the antigen peptide by the amine coupling method to a Series S Sencor Chip CM5 (GE Healthcare), or alternatively, chips produced by allowing preliminarily biotinylated antigen peptides to interact with and immobilize onto a Series S Sensor Chip SA (certified) (GE Healthcare) were used. Antibodies of interest were captured onto an antigen peptide-immobilized chip, and allowed to interact to each FcγR diluted with running buffer. To regenerate and repeatedly use the chip, the antibodies captured on the chip were washed off by reacting 10 mM glycine-HCl, pH 1.5.

FcγRIIa H [6] = target: T4, FcγRIIa H (human, UniProt P12318 34-217); assay: SPR (Biacore); He/Con_2aH divided by He/Con_2b (FcγRIIa H over FcγRIIb)
T4 construct: extracellular domain; also called FcγRIIa type H; 2aH; not shown: His tag at the C terminus
T4 sequence (looked up): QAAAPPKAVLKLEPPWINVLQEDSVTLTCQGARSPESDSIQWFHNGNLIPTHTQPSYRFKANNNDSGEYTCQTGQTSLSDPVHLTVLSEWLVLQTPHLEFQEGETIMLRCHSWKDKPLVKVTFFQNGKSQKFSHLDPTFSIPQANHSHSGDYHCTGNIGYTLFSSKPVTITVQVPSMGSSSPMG

FcγRIIa H [7] = target: T4, FcγRIIa H; assay: SPR (Biacore), antibody captured, FcγR as analyte; binding relative to GpH7-A5/GpH7-B3/GpL16-k0 = 100
FcγRIIb = target: T5, FcγRIIb (human, UniProt P31994 43-217); assay: as above
T5 construct: extracellular domain; also called 2b; not shown: His tag at the C terminus
T5 sequence (looked up): T3 sequence (looked up)

FcγRIIa R [8] = target: T6, FcγRIIa R (human, UniProt P12318 34-217); assay: SPR (Biacore T100); He/Con_2aR divided by He/Con_2b (FcγRIIa R over FcγRIIb)
T6 construct: extracellular domain; also called FcgRIIa R; FcγRIIa type R; not shown: His tag at the C terminus
T6 sequence (looked up): T4 sequence (looked up) with H134R
Procedure: as §1, §2

FcγRIIa R [9] = target: T6, FcγRIIa R; assay: SPR (Biacore T100), antibody captured on antigen peptide chip, FcγR as analyte; binding relative to GpH7-A5/GpH7-B3/GpL16-k0 = 100
Procedure: as §1, §2

Binder | He_2aH/2b (IIaH/IIb) (FcγRIIa H [6]) | He/Con_2aH (FcγRIIa H [7]) | He/Con_2b (FcγRIIb) | also measured
B1 | – | – | – | He_1a/2b (Ia/IIb) [1]: 7.05 ratio; He/Con_1a [2]: 63.3 % of HeCon Ab
B2 | – | – | – | He/Con_3a [3]: 57.7 % of control; He/Con_2b [4]: 35.3 % of control; He_3a/2b (IIIa/IIb) [5]: 1.64
B3 | 1.28 ratio | 85.3 % of control | 66.4 % of control | –
B4 | 1.53 ratio | 71.5 % of control | 46.8 % of control | –
B5 | 1.2 ratio | 120 % of control | 99.8 % of control | –
B6 | 1.47 ratio | 87.3 % of control | 59.4 % of control | –
B7 | 1.28 ratio | 93.5 % of control | 72.9 % of control | –
B8 | – | – | – | He/Con_3a [3]: 62.2 % of control; He/Con_2b [4]: 51.5 % of control; He_3a/2b (IIIa/IIb) [5]: 1.21
B9 | 1.31 ratio | 79.2 % of control | 60.3 % of control | –
B10 | – | – | – | He_2aR/2b (IIaR/IIb) (FcγRIIa R [8]): 2.47 ratio; He/Con_2aR (IIaR binding) (FcγRIIa R [9]): 24.2 % of control
B11 | – | – | – | He_1a/2b (Ia/IIb) [1]: 6.71 ratio; He/Con_1a [2]: 65.8 % of HeCon Ab
B12 | – | – | – | He/Con_3a [3]: 68.7 % of control; He/Con_2b [4]: 49.9 % of control; He_3a/2b (IIIa/IIb) [5]: 1.38
B13 | – | – | – | He/Con_3a [3]: 87 % of control; He/Con_2b [4]: 39.3 % of control; He_3a/2b (IIIa/IIb) [5]: 2.21
B14 | 3.45 ratio | 136 % of control | 39.5 % of control | –
B15 | 1.25 ratio | 78.1 % of control | 62.5 % of control | –
B16 | – | – | – | He/Con_3a [3]: 41.2 % of control; He_3a/2b (IIIa/IIb) [5]: 4.29
B17 | 1.45 ratio | 62 % of control | 42.6 % of control | –
B18 | – | – | – | He_2aR/2b (IIaR/IIb) (FcγRIIa R [8]): 1.9 ratio; He/Con_2aR (IIaR binding) (FcγRIIa R [9]): 17.1 % of control
B19 | 1.25 ratio | 120 % of control | 96.3 % of control | –
B20 | 1.36 ratio | 80.4 % of control | 59.3 % of control | –
B21 | 1.53 ratio | 54.1 % of control | 35.4 % of control | –
B22 | 1.2 ratio | 66.1 % of control | 54.9 % of control | –
B23 | 1.79 ratio | 103 % of control | 57.8 % of control | –
B24 | 1.25 ratio | 81 % of control | 64.9 % of control | –
B25 | 3.61 ratio | 22.7 % of control | 6.3 % of control | –
B26 | 2.53 ratio | 47.7 % of control | 18.9 % of control | –
B27 | 1.49 ratio | 75.6 % of control | 50.7 % of control | –
B28 | 1.37 ratio | 66.1 % of control | 48.2 % of control | –
B29 | 2.52 ratio | 40.8 % of control | 16.2 % of control | –
